Laboratory results: the nanobody polyreactivity screen of Harvey et al. (2022)

Assay: yeast display, Sf9 membrane polyspecificity reagent, FACS + sequencing; frameworks hold sequencing errors
Outline: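 Polyreactivity labels are assigned by the sorting gate from which each nanobody was recovered. The gates were low and high (top ~1%), set on anti-HA fluorescence for expression and streptavidin fluorescence for reagent binding. Before sorting, galactose-induced (36–48 hours) yeast display cells were stained for 1 hour at 4 °C with 10% biotinylated, detergent-solubilized Sf9 membrane reagent.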

Sequence | polyreactivity (PSR sort gate)
QVQLVESGGGLVQAGGSLRLSCAASGSIIPVYAMGWDRQAPGKVRQLVAAISSRGGRTYYADSVKGRFKISRDNAKNTVYLQMNSLKPEDTAVYYCASVYATYYRLPSQYDYWGQGTQVTVSS | low polyreactivity
QVQLVESGGGLVQAGGSLRLSCAASGRTFRGNVMGWYRQAPGNEREFVAASTRSGSNTYYADSVKGRFTISRDYAKTTVYLQMNSLKPEDTAVYDCAKSVLLGYKRHDSWGQGTQVTVSS | high polyreactivity
QVQLVESGGGIVQAGGSLRLLCAASGSIFLTNAMGWYRQAPGKERQFVAAIDWGGTITYYADSVKGRFTISRDNAKNNVYLQMNSLKPEDTAVYYCAADGYIRQYVTYYYWGQGTQVTVSS | low polyreactivity
QVQLVESGGGLVQAGGSLRLSCAASGIIFGRYARGWYRQAPGKDRELVATISYRGGRTNYADSVKGRFTISRDNAKNTVYLQSNSLKPEDTAVYDCAAPHFSYSGGTHDYWGQGTQVTVSS | high polyreactivity
QVQLVESGGGLVQAGGSLRLSCAASGFTFDIYGMGWYRQAPGKERELVASITSRSARTYYADSVKGRFTISRYNAKNTVYLQMNSLKPEDTAVYYCAADTTIKRKYLAIRGYWGQGTQVTVSS | high polyreactivity
QVQLVESGGGLVQAGGSLRLSCAASGIIFGTYTMGWYRQAPGKERELVAAITYSGGRTYYADSVKGRFTISRDNAKNTVYLQMNSLKPEDTAVYYCAAYRSSWGYSPYDYWGQGTQVTVSS | high polyreactivity
QVQLVESGGGLVQAGGSLRLSCAASGYIFAVYAMGWYRQAPGKEREFVAVITWRGGSTYYADSVKGRFTISRDNAKNTVYLQMNSLKPEDTAVYYCAADVYAQYDYWGQGTQVTVSS | high polyreactivity
QFQLVETGGGLVQAGGSLRLSCAASGITFVRYAMGWYSQAPGKERELVAGISRGGSTNYADSVKGRFTISRDNAKNTVYLQMNSLKPEDTAVYYCNRANSFFDTHTLQFYYWGQGTQVTVSS | high polyreactivity
QVHLVESGGGLVQAGGILRLSCAASGRTFLWYAMGWSRQAPGKERELVAAISKRGGSTYYADSVKGRFTISRDKAKNTVYLQMNSLKPVDTAVYYCAAEKRYSSYDYWGQGTQVSVSS | high polyreactivity
QLQLVESGGGLVQAGGSLRLSCAASGRIVKYDMGWYRQAPGKERELVAAISGSGGTTNYADSVKGRFTISRDNAKNTVYLKLNSLKPEETAVYYCAASRPRPPSSRRMDYWGQGTQVTVSS | high polyreactivity
QVQLVESGGGLVQAGGSLRLSCAASGFIFVSNAMGWYRQAPGKERELVATITNGDRTYYADSVKGRFPISRDNAKNTVYLQMNSLKPEDTAVYYCNADFRAREVFLFDSWGQGTQVTVSS | low polyreactivity
QVQLVESGGGLVQAGGSLRLSCAASGFTFKSYGMGWYRQAPGKERELVAAISKSGGRTYYADSVKGRFTISRDNAKNTVYLQMNSLKPEDTAVYYCAARVYGVDGYGYWGQGTQVTVSS | high polyreactivity
QVQLVESGGGLVQAGGSLRLSCAASGSTFTYYAMGWYRQAPGKERELVADISWDGGSTYYADSVKGRFTFSRDNAKNTVYLQMNSLKPEDTAVYYCATDLVYKYDYWGQGTQVTVSS | low polyreactivity
QEQLQESGGGLVHAGGSLRLSCAASGSISQAWYMGWYRQAPGKERELVAAINGGAITYYADSVKGRFSISRDNAKNTVYLPMNSLTPEDTAVYYCAVDQYSEAYYDYWGQGTQATVSS | high polyreactivity
QVQLVESGGGLVQAGGSLRLSCAASGSIFYFNAMGWYRQAPGKERELVAGISARGGSTYYADSVKGRFTISRDNAKNTVYLQMNSLKPEDTAVYYCAAYGTTRSRKRGFAWWGYDYWGQGTQVTVSS | low polyreactivity
QVQLVESGGGLVQAGGSLRLSCADSGFTFYYSAMGWYRQAPGKEREVVAAISWGGGTTYYADSVKGRFTISRDNAKNTVYLQMNSLKPEDTAVFYCNAASSLPGYDYWGQGTQVTVSS | high polyreactivity
QVQLVESGGGLVQAGGSLRLSCAASGRTFRVYAMGWYRQAPGKERELVAAIRSGGSTNYADSVKGRFTISRDNAKNTVYLQMNSLKPEDTAVYYCAAVYRNNRQGYQFDYWGQGTQVTVSS | high polyreactivity
QVQLVESGGGLVQAGGSLRLSCAASGNNFSAYAMGWYRQAPGKERELVATITSGGRTYYADSVKGRFTISRDNAKNTVYLQMNSLKPEDTAVYYCAADGPYYSPYYYWGQGTQVTVSS | low polyreactivity
QVQLVESGGGLVQAGGSLRLSCAASGFTFPRYAMGWYRQAPGKERELVAAITSGDRTYYADSVKGRFTISRDNAKNTVYLQMNSLKPEDTAVYYCATSSRYRYWHRYDYWGLGTQVTVSS | high polyreactivity
QVQLVESGGGLVQAGGSLRLSCASSGLIFQYYVKGWYRQAPGKERELVAAISARGGGTYYADSVKGRFTISRDNAKNTVYLQMISLKPEDTAVYYCAADPVYAGPGYDYWGQGTQVTVSS | high polyreactivity
QVQLVESGGGLVQAGGSLRLSCAASGFIFQQNAMGWYRQAPAKERELVAAINRSGGSTNYADSVKGRFTISRDNAKNTVYLQMNSLKPEDTAVYYCATNGRSFVSKSTMYYWGQGTQVTVSS | high polyreactivity

Sequence | polyreactivity (PSR sort gate)
QVHLVESGGGLVQAGGSLRLSCAASGRTFDLNVMGWYRQAPGKERELVAAISFSGGSTYYADSVKGRFTISRDNAKNTVYLQMNSLKPEDTAVYYCSADEYSADSVPSWYDYWGQGTQVTVSS | high polyreactivity
QVQLVESGGGLVQAGGSLRLSCAASGRTFSAYAMGWYRQAPGKERELVARITSVDSTNYADSVKGRFTISRDNAKNTVYLQMNSLKPEDTAVYYCNATFGYPCVDYDDYWGQGTQGTVSS | low polyreactivity
QVQLVESGGGLVQAGGSLRLSCAASGFTFSFYAIGWYRQAPGKERELVAAINYSGGRTYYADSVKGRFTISRDNAKNTVYLQMNSLKPEDTAVYYCAVHIPSVSGVTDYYYWGQGSQVTVSS | high polyreactivity
QVQLVESGGGLVQAGGSLRLSCAASGFTFRYYAMGWYRQAPGKERELVAGITWSGTNTYYADSVKGRFTISRDNAKNTVYLQMNSLKPEDTAVYYCITSPYLHYYYWGQGTQVTVSS | high polyreactivity
QVQLVESGGGLVQAGGSLRLSCAASGITFVGNAMGGYRQATGKERELVAVIRGNGGSTYYADSVKGRFTISRDNAKNTVYLQMNSLKPEDTAVYYCAAAAYYADFDYLGQGTQVTVSS | low polyreactivity
QVQLVESGGGLVQAGGSLRLSCAASGRIFYLYGMGWYRQAPGKERELVAAIDWSDGSTYYADSVKGRFTISRDNAKNTVYLQMNSLKPEDTAVYYCAADGWAAWLYDYWGQGTQVTVSS | low polyreactivity
QVQLEESGGGLVQAGGSLRLTCAASGRIFYRYGMGWYRQATGKERELVAAISRTGGSTYYADSVKGRFTISRDNAKNSVYLQMNSLKPEDTAVYYCNATSNYRYDFWGQGTQVTVSS | low polyreactivity
QVQLVESGGGLVQAGGSLRLSCASSGITFRVYAMGWYRQAPGKERELVAGISRGGRTSYADSVKGRFTISRDNAKNTVYLQMNSLKPEDTAVYYCAARQYRHRVKYYYWGQGTQVTVSS | high polyreactivity
QEHLVESGGGLVQAGGTLRLSCAASGGTFYVNDMGWYRQPPGKESELVATITYSGTSTYYADSVTGSFTISRDNAKNTVYLQMNSLKPEDTAVYYGATDVLLYLEPVNLDYCGQGTQVTVSS | low polyreactivity
QVQLVESGGGLVQAGGSLRLSCAASGITFKWNALGWYRQAPGKERELVAVISSDGRTYYADSVKWRFTISRDKAKNTVYLQMNSLKPEDTAVYYCNADRSVIHRGYIWQPGRNDYWGQGTQVTVSS | low polyreactivity
QVHLVESGGGLVQAGGTLRLSCYASGRTIDTNAMGWYRQPPGKEREMVATINCSGGRTHYADSVKGRFTISRDNAKNTVYLQMNSLKPEDTAVFYCAKASSRRYWTIRDCDYWGQGTQVTVSS | low polyreactivity
QVQLEESVGGLVQAGGSLRLTCAASGSIFKTNAIGWYRQAPGKERELVAAIRASGGSTYYADSVKGRFTISRDNAKNSVYLQMNSLKPEDTAVYYCAARYWFKYYWGQGTQVTVSS | low polyreactivity
QVQLVESGGGLVQAGGRLRLSCAASGFTQGSYAMGWHRQAPGKEREFVAGITDSGGSTYYADSVKGRYTISRDNAKNTVYLQMNSLKPEDTAVYDCNADFAPWDKQDYPYDYDYWGQGTQVTVSS | low polyreactivity
QVQLVESGGGLVQAGGSLRLSCAASGSIFVYYAMGWYRQAPGKERELVAAISQRGGRTYYADSVKGRFTISRDNAKNTVYLQMNSLKPEDTAVYYCAADSGPASAGYYYWGQGTQVTVSS | high polyreactivity
QVQLVESRGGLVQAGGSLRLSCAASRFYTMGWYRQAPGKERELVAAISWSGGDTYYADSVKGRFTISRDNAKNTVYLQMNSLKPDDTAVYYCAKKTIGSYVHEPYYYWGQGTQVTVSS | low polyreactivity
QVQLVESGGGLVQAGGSLRLSCAASGFTFLNYAMGWYRQAPGKERELVAAISFSTGRTYYADSVKGRFTISRDNAKNTVYLQMNSLKPEDTAVYYCYVLHRSDSGYYYRYDYWGQVTQVTVSS | high polyreactivity
QVQLVESGGGLVQAGGSLRLSCAASGYTFSFNAMGWYRKAPGKEREMVAAINRGTSTNYADSVKGRFTISRDNAKNTVYLQMNSLKPEDTAVYYCAAGFRRRAGRYDLDYWGQGTQVTVSS | high polyreactivity
QVQLVESGGGLVQAGGSLRLSCAASGSTFRYNARGWYRQAPGKERELVADIRRSGGSTYYADSVKGRFTISRDNAKNTVYLQMNSLKPEDTAVYYCNAAVSRLYYHSYSYRSYYYWGQGTQVTVSS | high polyreactivity
QVQLVESVGGLVQAGGSLRLSCAASGSTFGYNAMGWYRKAPGKERELVAGITSSGGSTYYADSVKGRFTISRDNAKNTVYLQMNSLKPEDTAVYYCAKAFYRHSSPNNSEYWGQGTQVTVSS | low polyreactivity
QVQLVETGGGLVQAGGSLSLSCAASGSTSSRYAMGWYRQAPGKEMELVARINWNGGSTYYADSVKGRFTISRDNAKNTVYLQMNSLKPEDTAVYYCAADSFGITYVSYVSIYDFDYWGQGTQLTVSS | low polyreactivity
